Data: publication PMC9536601, “Binding of adenovirus species C hexon to prothrombin and the influence of hexon on vector properties in vitro and in vivo” (PLoS Pathogens, 2022)

Target: T1, human prothrombin (coagulation factor II) (human, UniProt P00734 44-622, gamma-carboxylated glutamate residues in the Gla domain)
T1 construct: prothrombin (FII), human, plasma-derived; also called human FII; FII; source: bought: Haematologic Technologies, Inc. (HCP-0010), plasma-derived
Experiment: SPR; Biacore T200; about 300 to 5,000 RU of Ad virions immobilised on a CM5 chip, coagulation factors flowed over at four concentrations, 50 uL/min; running buffer 10 mM HEPES, 150 mM NaCl, 1 mM CaCl2, 0.5 mM MgCl2, 0.1% BSA, 0.05% polysorbate 20, pH 7.4; regeneration with 3 mM EDTA; global fit to a 1:1 kinetic interaction model, double referencing
Conditions: both partners purified

B1: hexon of the E1/E3-deleted Ad5 vector Ad5.0 (wild-type Ad5 capsid, on virions) (natural protein, human adenovirus 5)
chain: ATPSMMPQWSYMHISGQDASEYLSPGLVQFARATETYFSLNNKFRNPTVAPTHDVTTDRSQRLTLRFIPVDREDTAYSYKARFTLAVGDNRVLDMASTYFDIRGVLDRGPTFKPYSGTAYNALAPKGAPNPCEWDEAATALEINLEEEDDDNEDEVDEQAEQQKTHVFGQAPYSGINITKEGIQIGVEGQTPKYADKTFQPEPQIGESQWYETEINHAAGRVLKKTTPMKPCYGSYAKPTNENGGQGILVKQQNGKLESQVEMQFFSTTEATAGNGDNLTPKVVLYSEDVDIETPDTHISYMPTIKEGNSRELMGQQSMPNRPNYIAFRDNFIGLMYYNSTGNMGVLAGQASQLNAVVDLQDRNTELSYQLLLDSIGDRTRYFSMWNQAVDSYDPDVRIIENHGTEDELPNYCFPLGGVINTETLTKVKPKTGQENGWEKDATEFSDKNEIRVGNNFAMEINLNANLWRNFLYSNIALYLPDKLKYSPSNVKISDNPNTYDYMNKRVVAPGLVDCYINLGARWSLDYMDNVNPFNHHRNAGLRYRSMLLGNGRYVPFHIQVPQKFFAIKNLLLLPGSYTYEWNFRKDVNMVLQSSLGNDLRVDGASIKFDSICLYATFFPMAHNTASTLEAMLRNDTNDQSFNDYLSAANMLYPIPANATNVPISIPSRNWAAFRGWAFTRLKTKETPSLGSGYDPYYTYSGSIPYLDGTFYLNHTFKKVAITFDSSVSWPGNDRLLTPNEFEIKRSVDGEGYNVAQCNMTKDWFLVQMLANYNIGYQGFYIPESYKDRMYSFFRNFQPMSRQVVDDTKYKDYQQVGILHQHNNSGFVGYLAPTMREGQAYPANFPYPLIGKTAVDSITQKKFLCDRTLWRIPFSSNFMSMGALTDLGQNLLYANSAHALDMTFEVDPMDEPTLLYVLFEVFDVVRVHRPHRGVIETVYLRTPFSAGNATT
notes: hexon of human adenovirus type 5, unchanged, as it stands in the capsid of the vector; Immobilised as whole vector virions; source: E1/E3-deleted Ad5 vector grown on 293 cells, virions purified by CsCl ultracentrifugation
Binder B1 has a Kd of 35 nM, a koff of 0.00317 s⁻¹ and a kon of 90500 M⁻¹ s⁻¹.
